Results as given in patent US20110151450.
Numbering of substitutions follows the chain as printed.

Legend:
Assay in all cases: cleavage_in_vitro
[1] = tested on: StyI-HF K75A (Salmonella typhi); conditions: NEB4, relative activity 50%
[2] = tested on: StyI-WT (Salmonella typhi); conditions: NEB4, relative activity 25%
[3] = tested on: T1, AatII-HF N235A (Acetobacter aceti); conditions: NEB4, relative activity 100%; Table 1 lists pXba
T1 sequence: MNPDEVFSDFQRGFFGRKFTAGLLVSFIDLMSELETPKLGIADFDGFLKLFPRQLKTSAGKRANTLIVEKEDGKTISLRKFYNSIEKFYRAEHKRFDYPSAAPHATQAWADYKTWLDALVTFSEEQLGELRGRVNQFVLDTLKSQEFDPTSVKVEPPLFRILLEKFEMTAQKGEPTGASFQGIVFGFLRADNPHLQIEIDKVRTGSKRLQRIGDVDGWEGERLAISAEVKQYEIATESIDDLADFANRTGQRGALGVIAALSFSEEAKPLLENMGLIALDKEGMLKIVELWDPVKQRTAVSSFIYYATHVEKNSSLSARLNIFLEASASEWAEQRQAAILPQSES

[4] = tested on: BsrDI-WT (BsrDIA + BsrDIB) (Bacillus stearothermophilus); conditions: NEB4, relative activity 25%
[5] = tested on: T2, BstNI-WT (Bacillus stearothermophilus); conditions: NEB4, relative activity 50%
T2 sequence: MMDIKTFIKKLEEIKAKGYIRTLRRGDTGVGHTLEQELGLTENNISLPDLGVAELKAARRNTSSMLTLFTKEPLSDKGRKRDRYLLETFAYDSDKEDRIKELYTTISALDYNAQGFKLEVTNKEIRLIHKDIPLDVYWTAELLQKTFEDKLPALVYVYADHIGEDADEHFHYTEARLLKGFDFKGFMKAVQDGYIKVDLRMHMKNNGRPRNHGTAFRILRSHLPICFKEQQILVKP

[6] = tested on: T3, BsaJI-HF D200A (Bacillus stearothermophilus); conditions: NEB4, relative activity 100%
T3 sequence: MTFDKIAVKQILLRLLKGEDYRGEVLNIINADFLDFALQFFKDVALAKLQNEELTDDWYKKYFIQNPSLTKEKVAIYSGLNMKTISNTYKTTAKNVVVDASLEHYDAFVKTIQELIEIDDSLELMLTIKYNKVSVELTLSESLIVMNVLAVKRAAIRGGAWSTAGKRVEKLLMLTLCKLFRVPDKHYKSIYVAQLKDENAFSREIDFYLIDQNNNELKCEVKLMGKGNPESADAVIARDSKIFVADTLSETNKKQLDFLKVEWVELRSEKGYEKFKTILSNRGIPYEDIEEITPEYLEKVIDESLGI

[7] = tested on: T4, AatII-WT (Acetobacter aceti); conditions: NEB4, relative activity 50%
T4 sequence: T1 sequence with A235N

[8] = tested on: T5, BsrFI-WT (Bacillus stearothermophilus); conditions: NEB4, relative activity 50%
T5 sequence: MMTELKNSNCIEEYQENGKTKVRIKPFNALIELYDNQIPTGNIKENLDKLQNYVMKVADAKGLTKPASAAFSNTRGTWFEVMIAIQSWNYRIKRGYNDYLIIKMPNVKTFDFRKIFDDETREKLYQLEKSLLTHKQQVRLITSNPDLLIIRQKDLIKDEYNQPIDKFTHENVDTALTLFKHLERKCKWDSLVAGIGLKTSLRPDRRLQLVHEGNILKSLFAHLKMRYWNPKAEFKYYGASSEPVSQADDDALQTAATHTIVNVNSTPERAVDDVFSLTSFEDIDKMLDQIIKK

[9] = tested on: T6, KasI-WT (Kluyvera ascorbata); conditions: NEB4, relative activity 100%
T6 sequence: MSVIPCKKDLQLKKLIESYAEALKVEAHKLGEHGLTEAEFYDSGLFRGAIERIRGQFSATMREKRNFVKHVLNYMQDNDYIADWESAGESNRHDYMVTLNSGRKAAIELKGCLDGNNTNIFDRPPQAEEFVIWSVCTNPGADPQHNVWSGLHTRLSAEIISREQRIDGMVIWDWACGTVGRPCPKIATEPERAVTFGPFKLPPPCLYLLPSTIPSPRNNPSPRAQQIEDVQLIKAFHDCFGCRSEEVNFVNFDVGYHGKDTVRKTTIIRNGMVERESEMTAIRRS

[10] = tested on: T7, KasI-HF N251A (Kluyvera ascorbata); conditions: NEB4, relative activity 100%
T7 sequence: T6 sequence with N251A

[11] = tested on: T8, BstNI-HF G26T (Bacillus stearothermophilus); conditions: NEB4, relative activity 100%
T8 sequence: T2 sequence with G26T

[12] = tested on: T9, BsaJI-WT (Bacillus stearothermophilus); conditions: NEB4, relative activity 100%
T9 sequence: T3 sequence with A200D

[13] = tested on: BsrDI-HF (BsrDIA + mutant BsrDIB) Q230A/K363A (BsrDIB) (Bacillus stearothermophilus); conditions: NEB4, relative activity 100%
[14] = target: KpnI-HF D16N/D148E (Klebsiella pneumoniae) (UniProt P25237); conditions: NEB4, relative activity 100%
[15] = target: KpnI-WT (Klebsiella pneumoniae) (UniProt P25237); conditions: NEB4, relative activity 50%

lambda DNA, StyI sites gave an activity (fidelity index) [1] of 4000 and an activity (fidelity index) [2] of 16.
pBR322 plasmid was tested, and the activity (fidelity index) [3] was > 1000, the activity (fidelity index) [4] was 0.5 and the activity (fidelity index) [5] was 4. The activity (fidelity index) [6] was > 4000, the activity (fidelity index) [7] was 16 and the activity (fidelity index) [8] was 16. The activity (fidelity index) [9] was 4, the activity (fidelity index) [10] was > 16000 and the activity (fidelity index) [11] was 500. The activity (fidelity index) [12] was 64 and the activity (fidelity index) [13] was > 1000.
pXba plasmid, KpnI sites was tested, and the activity (fidelity index) [14] was > 1e+06 and the activity (fidelity index) [15] was 4.
